Experimental data taken from patent US20020076785.
“Also recorded” adds a separate entry of the source.

Assays:
[1] = target: recombinant C. elegans Rho (UniProt Q22038)
[2] = target: recombinant C. elegans Rac (UniProt Q03206)
[3] = target: recombinant C. elegans Cdc42 (UniProt Q05062)
Sequence of recombinant C. elegans Cdc42 (Q05062 whole entry): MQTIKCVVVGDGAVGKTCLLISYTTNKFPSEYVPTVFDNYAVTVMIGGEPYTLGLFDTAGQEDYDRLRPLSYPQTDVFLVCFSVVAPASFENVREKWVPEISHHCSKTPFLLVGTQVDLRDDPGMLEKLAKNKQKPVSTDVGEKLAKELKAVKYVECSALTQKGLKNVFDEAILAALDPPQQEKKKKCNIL

Sequence of recombinant C. elegans Rho (Q22038 whole entry): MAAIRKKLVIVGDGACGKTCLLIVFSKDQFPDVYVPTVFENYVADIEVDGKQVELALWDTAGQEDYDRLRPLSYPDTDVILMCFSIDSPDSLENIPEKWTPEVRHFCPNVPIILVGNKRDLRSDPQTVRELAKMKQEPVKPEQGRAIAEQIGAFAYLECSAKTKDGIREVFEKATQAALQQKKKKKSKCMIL

Question: Which results are given for “GST-CYK-4-GAP (GST fused to the GAP domain of CYK-4, amino acids 407-681)”?
Answer: GTP hydrolysis [1]: The GAP domain of CYK-4 promotes GTP hydrolysis by all three tested GTPases; also recorded: the CYK-4 GAP domain is more active towards Rac and Cdc42 than towards Rho; GTP hydrolysis [2]: The GAP domain of CYK-4 promotes GTP hydrolysis by all three tested GTPases; also recorded: the CYK-4 GAP domain is more active towards Rac and Cdc42 than towards Rho; GTP hydrolysis [3]: The GAP domain of CYK-4 promotes GTP hydrolysis by all three tested GTPases; also recorded: the CYK-4 GAP domain is more active towards Rac and Cdc42 than towards Rho
